From US20030036169A1 (University of Texas, published 2003)
No end group written: not given here.

B7: peptide corresponding to the extreme C-terminus of human Presenilin 1 (CMDQLAFHQFYI) (peptide)
peptide: CMDQLAFHQFYI
modifications: also: immobilized on SulfoLink beads
notes: Has an added N-terminal Cys and is immobilized on SulfoLink beads; also called Pres1; presenilin 1 column

Columns and labels:
[1] = target: B7; experiment: affinity chromatography of COS cell-expressed Mint 1 proteins on the immobilized presenilin 1 C-terminal peptide
[2] = target: T1, Mint 1 (rat, UniProt O35430 1-839); experiment: affinity chromatography on the immobilized Drosophila presenilin C-terminal peptide
T1 construct: Full-length rat Mint 1 from pCMV5 vectors in transfected COS/HEK293 cells; also called Mints/X11 1; wild-type Mint 1
T1 sequence: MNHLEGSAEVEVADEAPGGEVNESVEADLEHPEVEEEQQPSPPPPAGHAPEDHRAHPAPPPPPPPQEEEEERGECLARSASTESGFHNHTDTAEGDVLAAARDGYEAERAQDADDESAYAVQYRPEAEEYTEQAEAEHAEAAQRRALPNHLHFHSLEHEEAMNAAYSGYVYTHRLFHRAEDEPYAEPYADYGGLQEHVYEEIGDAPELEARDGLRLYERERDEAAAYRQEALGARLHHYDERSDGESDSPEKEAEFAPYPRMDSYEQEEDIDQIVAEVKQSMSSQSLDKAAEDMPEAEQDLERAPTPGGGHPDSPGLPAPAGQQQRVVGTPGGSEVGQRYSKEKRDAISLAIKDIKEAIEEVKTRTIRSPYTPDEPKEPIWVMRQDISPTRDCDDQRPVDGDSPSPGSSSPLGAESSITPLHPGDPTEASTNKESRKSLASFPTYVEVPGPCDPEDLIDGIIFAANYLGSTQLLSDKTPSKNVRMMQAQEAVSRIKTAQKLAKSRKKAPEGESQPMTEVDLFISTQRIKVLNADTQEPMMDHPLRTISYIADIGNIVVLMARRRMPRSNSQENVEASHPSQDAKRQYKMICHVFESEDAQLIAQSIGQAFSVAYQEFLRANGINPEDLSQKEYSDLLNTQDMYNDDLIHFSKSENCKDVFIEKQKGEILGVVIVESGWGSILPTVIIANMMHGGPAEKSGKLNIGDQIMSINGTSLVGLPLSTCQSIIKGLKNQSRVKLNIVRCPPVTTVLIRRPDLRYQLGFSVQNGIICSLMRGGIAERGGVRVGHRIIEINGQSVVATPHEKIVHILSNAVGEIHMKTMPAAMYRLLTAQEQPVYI

[3] = target: T1, Mint 1; experiment: affinity chromatography on the immobilized presenilin 2 C-terminal peptide
[4] = target: T1, Mint 1; experiment: affinity chromatography on the immobilized HPV2 control peptide
[5] = target: APP-Gal4/VP16 fusion protein (human; yeast, UniProt P05067 18-651; P04386 1-147; P06492 413-490; P05067 652-695); experiment: cell-based or functional assay
[6] = target: T2, Mint 2 (rat, UniProt O35431 1-750); experiment: affinity chromatography on the immobilized APP tail peptide, immunoblot
T2 construct: Endogenous rat brain protein or full-length rat Mint 2 from a pCMV5 vector; also called Mints/X11 2; pCMV-Mint 2
T2 sequence: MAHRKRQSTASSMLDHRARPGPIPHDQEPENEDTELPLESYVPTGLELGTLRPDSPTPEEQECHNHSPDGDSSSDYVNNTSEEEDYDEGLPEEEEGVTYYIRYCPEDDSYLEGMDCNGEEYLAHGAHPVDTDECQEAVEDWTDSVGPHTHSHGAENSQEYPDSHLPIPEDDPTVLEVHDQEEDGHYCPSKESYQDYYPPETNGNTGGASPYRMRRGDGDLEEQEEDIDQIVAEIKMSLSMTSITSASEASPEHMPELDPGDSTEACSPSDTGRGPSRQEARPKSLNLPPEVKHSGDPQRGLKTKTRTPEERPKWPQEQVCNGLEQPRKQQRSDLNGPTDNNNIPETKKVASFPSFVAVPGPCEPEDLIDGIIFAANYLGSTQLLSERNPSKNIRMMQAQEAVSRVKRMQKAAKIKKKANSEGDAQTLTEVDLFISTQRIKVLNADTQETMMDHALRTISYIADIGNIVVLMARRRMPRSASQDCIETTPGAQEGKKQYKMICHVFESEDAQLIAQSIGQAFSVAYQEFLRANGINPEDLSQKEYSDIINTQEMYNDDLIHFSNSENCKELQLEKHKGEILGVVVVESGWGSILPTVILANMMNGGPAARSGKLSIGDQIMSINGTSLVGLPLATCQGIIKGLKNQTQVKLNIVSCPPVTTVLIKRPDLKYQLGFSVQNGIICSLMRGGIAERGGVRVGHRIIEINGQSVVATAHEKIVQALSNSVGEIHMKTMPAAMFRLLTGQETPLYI

[7] = target: T1, Mint 1; experiment: as above
[8] = target: T3, Mint 3 (rat, UniProt O70248 1-569); experiment: as above
T3 construct: Endogenous rat brain protein or full-length rat Mint 3 from a pCMV5 vector; also called Mints/X11 3; pCMV-Mint 3
T3 sequence (looked up): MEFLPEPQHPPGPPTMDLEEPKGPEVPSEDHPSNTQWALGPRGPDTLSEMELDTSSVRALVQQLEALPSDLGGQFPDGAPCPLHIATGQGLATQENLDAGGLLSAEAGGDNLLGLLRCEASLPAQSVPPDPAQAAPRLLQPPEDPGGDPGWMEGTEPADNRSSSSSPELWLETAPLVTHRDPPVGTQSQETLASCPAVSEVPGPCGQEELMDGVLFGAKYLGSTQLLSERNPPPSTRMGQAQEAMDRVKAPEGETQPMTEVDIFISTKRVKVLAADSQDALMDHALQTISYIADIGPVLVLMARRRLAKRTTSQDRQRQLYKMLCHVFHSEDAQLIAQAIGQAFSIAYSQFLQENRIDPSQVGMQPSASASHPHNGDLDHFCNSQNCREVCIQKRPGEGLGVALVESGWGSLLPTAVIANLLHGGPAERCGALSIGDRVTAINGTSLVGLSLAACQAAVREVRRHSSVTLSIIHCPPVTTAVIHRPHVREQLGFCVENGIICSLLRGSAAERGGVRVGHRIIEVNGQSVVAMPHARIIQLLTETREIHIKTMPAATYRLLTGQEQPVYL

[9] = target: T4, synaptophysin 1 (Syp) (rat, UniProt P07825 1-307); experiment: affinity chromatography of rat forebrain membrane proteins on the presenilin 1 C-terminal peptide
T4 construct: Negative control protein

[10] = target: T1, Mint 1; experiment: affinity chromatography on the immobilized presenilin 1 C-terminal peptide, immunoblot
[11] = target: T3, Mint 3; experiment: as above
[12] = target: T2, Mint 2; experiment: affinity chromatography of rat forebrain membrane proteins on the immobilized presenilin 1 C-terminal peptide, immunoblot
[13] = target: PSD95 (rat, UniProt P31016 1-724); experiment: as above
[14] = target: T2, Mint 2; experiment: affinity chromatography of rat forebrain membrane proteins on the gp41 control peptide
[15] = target: T3, Mint 3; experiment: as above
[16] = target: T1, Mint 1; experiment: affinity chromatography of rat brain extract on the immobilized gp41 control peptide, immunoblot

T4 sequence (P07825 whole entry): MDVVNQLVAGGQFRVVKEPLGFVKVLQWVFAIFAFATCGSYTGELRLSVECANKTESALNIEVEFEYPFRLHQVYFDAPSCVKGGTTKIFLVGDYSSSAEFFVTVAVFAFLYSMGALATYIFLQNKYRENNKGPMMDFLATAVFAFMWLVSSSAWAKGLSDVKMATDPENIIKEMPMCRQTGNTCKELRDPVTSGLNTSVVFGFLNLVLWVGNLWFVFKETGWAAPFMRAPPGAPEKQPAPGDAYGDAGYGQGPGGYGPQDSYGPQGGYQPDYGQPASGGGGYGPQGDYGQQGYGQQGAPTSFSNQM
Sequence of PSD95 (P31016 whole entry): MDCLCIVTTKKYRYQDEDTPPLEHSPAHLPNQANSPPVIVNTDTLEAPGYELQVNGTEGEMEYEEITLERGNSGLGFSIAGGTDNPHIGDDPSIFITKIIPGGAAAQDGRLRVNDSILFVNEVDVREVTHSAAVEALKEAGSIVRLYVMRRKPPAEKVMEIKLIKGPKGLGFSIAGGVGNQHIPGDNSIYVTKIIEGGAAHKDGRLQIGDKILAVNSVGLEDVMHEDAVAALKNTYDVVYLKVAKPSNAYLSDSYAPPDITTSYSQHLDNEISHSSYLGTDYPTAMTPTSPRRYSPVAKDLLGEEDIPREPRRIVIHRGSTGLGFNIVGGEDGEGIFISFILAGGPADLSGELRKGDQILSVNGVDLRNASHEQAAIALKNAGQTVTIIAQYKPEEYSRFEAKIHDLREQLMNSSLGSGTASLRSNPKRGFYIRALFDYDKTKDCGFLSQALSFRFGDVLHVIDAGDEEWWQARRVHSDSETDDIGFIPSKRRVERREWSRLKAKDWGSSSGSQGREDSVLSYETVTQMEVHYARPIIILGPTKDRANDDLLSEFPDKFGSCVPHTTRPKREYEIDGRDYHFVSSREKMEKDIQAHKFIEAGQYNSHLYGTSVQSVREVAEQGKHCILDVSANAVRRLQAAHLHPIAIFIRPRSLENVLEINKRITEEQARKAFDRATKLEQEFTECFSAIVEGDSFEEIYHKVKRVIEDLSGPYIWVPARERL

B1: Mint 1 PDZ1* (other)
chain: MNHLEGSAEVEVADEAPGGEVNESVEADLEHPEVEEEQQPSPPPPAGHAPEDHRAHPAPPPPPPPQEEEEERGECLARSASTESGFHNHTDTAEGDVLAAARDGYEAERAQDADDESAYAVQYRPEAEEYTEQAEAEHAEAAQRRALPNHLHFHSLEHEEAMNAAYSGYVYTHRLFHRAEDEPYAEPYADYGGLQEHVYEEIGDAPELEARDGLRLYERERDEAAAYRQEALGARLHHYDERSDGESDSPEKEAEFAPYPRMDSYEQEEDIDQIVAEVKQSMSSQSLDKAAEDMPEAEQDLERAPTPGGGHPDSPGLPAPAGQQQRVVGTPGGSEVGQRYSKEKRDAISLAIKDIKEAIEEVKTRTIRSPYTPDEPKEPIWVMRQDISPTRDCDDQRPVDGDSPSPGSSSPLGAESSITPLHPGDPTEASTNKESRKSLASFPTYVEVPGPCDPEDLIDGIIFAANYLGSTQLLSDKTPSKNVRMMQAQEAVSRIKTAQKLAKSRKKAPEGESQPMTEVDLFISTQRIKVLNADTQEPMMDHPLRTISYIADIGNIVVLMARRRMPRSNSQENVEASHPSQDAKRQYKMICHVFESEDAQLIAQSIGQAFSVAYQEFLRANGINPEDLSQKEYSDLLNTQDMYNDDLIHFSKSENCKDVFIEKQKGEILAAVIVESGWGSILPTVIIANMMHGGPAEKSGKLNIGDQIMSINGTSLVGLPLSTCQSIIKGLKNQSRVKLNIVRCPPVTTVLIRRPDLRYQLGFSVQNGIICSLMRGGIAERGGVRVGHRIIEINGQSVVATPHEKIVHILSNAVGEIHMKTMPAAMYRLLTAQEQPVYI
notes: Produced in transfected COS or HEK293 cells; also called pCMV-Mint 1-PDZ1*
fold decrease in binding against wild-type Mint 1 [1]: ~2 fold decrease

B2: peptide corresponding to the extreme C-terminus of Drosophila Presenilin (CMEDLSAKQVFI) (peptide)
peptide: CMEDLSAKQVFI
modifications: also: immobilized on SulfoLink beads
notes: Has an added N-terminal Cys and is immobilized on SulfoLink beads; also called Drosophila presenilin C-terminal peptide
binding result [2]: binds

B3: peptide corresponding to the extreme C-terminus of human Presenilin 2 (CMDTLASHQLYI) (peptide)
peptide: CMDTLASHQLYI
modifications: also: immobilized on SulfoLink beads
notes: Has an added N-terminal Cys and is immobilized on SulfoLink beads; also called presenilin 2 C-terminal peptide
binding result [3]: binds

B4: peptide corresponding to the extreme C-terminus of human HPV2 (poliovirus receptor-related protein 2; CGSLISRRAVYV) (peptide)
peptide: CGSLISRRAVYV
modifications: also: immobilized on SulfoLink beads
notes: Negative control peptide immobilized on SulfoLink beads; also called HPV2 control peptide
binding result [4]: no binding

B5: Mint 1 ΔPDZ (other)
chain: MNHLEGSAEVEVADEAPGGEVNESVEADLEHPEVEEEQQPSPPPPAGHAPEDHRAHPAPPPPPPPQEEEEERGECLARSASTESGFHNHTDTAEGDVLAAARDGYEAERAQDADDESAYAVQYRPEAEEYTEQAEAEHAEAAQRRALPNHLHFHSLEHEEAMNAAYSGYVYTHRLFHRAEDEPYAEPYADYGGLQEHVYEEIGDAPELEARDGLRLYERERDEAAAYRQEALGARLHHYDERSDGESDSPEKEAEFAPYPRMDSYEQEEDIDQIVAEVKQSMSSQSLDKAAEDMPEAEQDLERAPTPGGGHPDSPGLPAPAGQQQRVVGTPGGSEVGQRYSKEKRDAISLAIKDIKEAIEEVKTRTIRSPYTPDEPKEPIWVMRQDISPTRDCDDQRPVDGDSPSPGSSSPLGAESSITPLHPGDPTEASTNKESRKSLASFPTYVEVPGPCDPEDLIDGIIFAANYLGSTQLLSDKTPSKNVRMMQAQEAVSRIKTAQKLAKSRKKAPEGESQPMTEVDLFISTQRIKVLNADTQEPMMDHPLRTISYIADIGNIVVLMARRRMPRSNSQENVEASHPSQDAKRQYKMICHVFESEDAQLIAQSIGQAFSVAYQEFLRANGINPEDLSQKEYSDLLNTQDMYNDDLIHFSKSENCKDV
potency of inhibition of transactivation relative to wild-type Mint 1 (normalized to expressed protein) [5]: ~10 times more potent than wild-type Mint 1

B6: immobilized cytoplasmic peptide derived from APP (CGYENPTYKFFEQMQN) (peptide)
peptide: CGYENPTYKFFEQMQN
modifications: not fully specified (residue 1); also: immobilized on SulfoLink beads via N-terminal Cys
notes: Coupled through the added N-terminal Cys to SulfoLink beads; also called immobilized cytoplasmic tail of APP; immobilized APP tail
binding result [6]: binds | binding result [7]: binds | binding result [8]: binds

B7
binding result [9]: no binding | binding result [10]: binds | binding result [11]: binds | binding result [12]: binds | binding result [13]: binds

B8: peptide derived from the gp41 glycoprotein (CWFSITNWLWYI) (peptide)
peptide: CWFSITNWLWYI
modifications: also: immobilized on SulfoLink beads
notes: Negative control peptide immobilized on SulfoLink beads; also called gp41 control peptide; Control
binding result [14]: no binding | binding result [15]: no binding | binding result [16]: no binding
